Common to all, as to test: ELISA, growth factor coated at 10 μg/ml, antibody at 10 μg/ml, mean of duplicates
On the technique in general: ELISA stands for enzyme-linked immunosorbent assay.

Experiment [1] concerns the target 激活蛋白B (R&D Systems 659-AB) (UniProt P09529).
The target in experiment [2] is 重组人GDF-11(Peprotech公司，目录号120-11) (human) (UniProt O95390).
The target of experiment [3] is BMP-5 (R&D Systems 615-BM) (UniProt P22003).
For experiment [4], the target named is TGF-b2 (Peprotech 100-35) (UniProt P61812).
In experiment [5] the target is 激活蛋白A (R&D Systems 338-AC) (UniProt P08476).
For experiment [6], the target named is TGF-b1 (Peprotech 100-21R) (UniProt P01137).
In experiment [7] the target is 重组小鼠肌肉生长抑素(R&D systems，目录号788-G8/CF) (mouse) (UniProt O08689).
The target in experiment [8] is TGF-a (R&D Systems 239-A) (UniProt P01135).
In experiment [9] the target is IGF-1 (R&D Systems 291-G1) (UniProt P05019).
Experiment [10] has as its target BMP-6 (R&D Systems 507-BP) (UniProt P22004).
The target of experiment [11] is BMP-7 (R&D Systems 354-BP) (UniProt P18075).
The target of experiment [12] is BMP-2 (R&D Systems 355-BEC/CF) (UniProt P12643).
Sequence of UniProt P12643 (P12643 283-396 limits assumed): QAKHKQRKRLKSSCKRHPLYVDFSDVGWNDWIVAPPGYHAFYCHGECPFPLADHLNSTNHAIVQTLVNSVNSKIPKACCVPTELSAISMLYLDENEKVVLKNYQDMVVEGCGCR

Sequence of UniProt O95390 (O95390 299-407 limits assumed): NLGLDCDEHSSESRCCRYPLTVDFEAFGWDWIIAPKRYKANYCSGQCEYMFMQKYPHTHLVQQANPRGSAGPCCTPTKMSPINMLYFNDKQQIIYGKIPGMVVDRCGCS
Sequence of UniProt P01137 (P01137 279-390 limits assumed): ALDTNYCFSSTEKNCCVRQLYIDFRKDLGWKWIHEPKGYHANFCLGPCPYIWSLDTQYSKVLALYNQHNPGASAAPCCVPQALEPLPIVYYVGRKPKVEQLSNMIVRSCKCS
Sequence of UniProt P61812 (P61812 303-414 limits assumed): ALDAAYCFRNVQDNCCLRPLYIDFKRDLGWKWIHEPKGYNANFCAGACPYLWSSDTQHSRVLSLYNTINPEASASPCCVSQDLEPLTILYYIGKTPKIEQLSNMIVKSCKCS
Sequence of UniProt O08689 (O08689 268-376): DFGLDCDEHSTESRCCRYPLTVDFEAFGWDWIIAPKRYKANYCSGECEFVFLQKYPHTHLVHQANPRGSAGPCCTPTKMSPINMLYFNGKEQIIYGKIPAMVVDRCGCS
Sequence of UniProt P08476 (P08476 311-426 limits assumed): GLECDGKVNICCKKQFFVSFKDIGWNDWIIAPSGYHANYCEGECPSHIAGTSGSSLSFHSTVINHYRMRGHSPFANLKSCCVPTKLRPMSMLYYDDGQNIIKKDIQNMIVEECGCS
Sequence of UniProt P09529 (P09529 293-407 limits assumed): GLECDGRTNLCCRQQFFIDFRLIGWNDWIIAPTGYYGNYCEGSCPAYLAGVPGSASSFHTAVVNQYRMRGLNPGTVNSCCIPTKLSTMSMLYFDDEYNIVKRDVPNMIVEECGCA
Sequence of UniProt P01135 (P01135 40-89 limits assumed): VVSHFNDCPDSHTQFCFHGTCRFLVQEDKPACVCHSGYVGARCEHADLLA
Sequence of UniProt P05019 (P05019 49-118 limits assumed): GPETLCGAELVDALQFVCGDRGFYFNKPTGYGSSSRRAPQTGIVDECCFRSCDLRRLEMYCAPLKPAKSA
Sequence of UniProt P22003 (P22003 317-454 limits assumed): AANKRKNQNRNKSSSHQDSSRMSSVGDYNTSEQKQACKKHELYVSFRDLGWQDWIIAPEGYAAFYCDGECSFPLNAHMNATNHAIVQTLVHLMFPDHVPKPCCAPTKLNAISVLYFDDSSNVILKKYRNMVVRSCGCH
Sequence of UniProt P18075 (P18075 293-431 limits assumed): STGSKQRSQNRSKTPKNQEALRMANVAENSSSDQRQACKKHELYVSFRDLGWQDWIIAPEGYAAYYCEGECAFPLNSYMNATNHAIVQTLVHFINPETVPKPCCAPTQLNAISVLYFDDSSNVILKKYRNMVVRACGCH
Sequence of UniProt P22004 (P22004 382-513 limits assumed): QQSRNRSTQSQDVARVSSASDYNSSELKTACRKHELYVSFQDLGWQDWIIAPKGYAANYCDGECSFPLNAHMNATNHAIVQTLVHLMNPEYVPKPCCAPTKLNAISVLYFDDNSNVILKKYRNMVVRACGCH

“多克隆抗肌肉生长抑素抗体(R&D Systems，目录号AF788) (antibody)”: the 平均吸光度 (OD 490 nm) in experiment [1] stood at 0.0485 OD 490 nm; in [2], 2.62 OD 490 nm; in [3] it was 0.038 OD 490 nm; in experiment [4], 0.0525 OD 490 nm; in experiment [5] it was 0.049 OD 490 nm; in experiment [6], 0.0425 OD 490 nm. Also, the 平均吸光度 (OD 490 nm) in experiment [7] was 2.94 OD 490 nm; in [8], 0.0445 OD 490 nm; in [9], 0.045 OD 490 nm; in experiment [10], 0.0745 OD 490 nm; in [11] it was 0.042 OD 490 nm; in experiment [12] it was 0.0525 OD 490 nm.

These data come from patent publication CN1934266A.
